Target: the molecule itself
Experiment: SEC

B1: polyketide cyclase from Mycobacterium tuberculosis (MtPC) (natural protein)
chain: MGSTPPRTPQEVFAHHGQALAAGDLDEIVADYADDSFVITPAGIARGKEGIRQLFVKLLDDIPNALWDLKTQIFEGDILFLEWTANSAVSRVDDGVDTFVFRDGTIWAHTVRYTPHPKT
B1 was tested, and the “stoichiometry N” value was 2.
